T1: rHuman Erythropoietin R/Fc Chimera (human, UniProt P19235 25-250)
T1 construct: also called EPO R; EPO R/Fc
T1 sequence (looked up): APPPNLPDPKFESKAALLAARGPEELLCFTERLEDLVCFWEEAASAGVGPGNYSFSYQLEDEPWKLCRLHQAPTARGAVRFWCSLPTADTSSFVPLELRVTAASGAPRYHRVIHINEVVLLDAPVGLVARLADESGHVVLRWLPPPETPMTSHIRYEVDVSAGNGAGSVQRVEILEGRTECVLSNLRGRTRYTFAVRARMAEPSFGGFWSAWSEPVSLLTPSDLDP

B1: Fab VH1-46_IGHD6-6*01_IGHJ1*01 S102A/S103P/S104F/H111F (APFF) & L6_IGKJ1*01 S92M (Fab, V domains shown)
VH: QVQLVQSGAEVKKPGASVKVSCKASGYTFTSYYMHWVRQAPGQGLEWMGIINPSGGSTSYAQKFQGRVTMTRDTSTSTVYMELSSLRSEDTAVYYCAREEYAPFSAEYFQFWGQGTLVTVSS
VL: EIVLTQSPATLSLSPGERATLSCRASQSVSSYLAWYQQKPGQAPRLLIYDASNRATGIPARFSGSGSGTDFTLTISSLEPEDFAVYYCQQRMNWPPWTFGQGTKVEIKR
notes: Tested as Fab (CH1 with His6/Flag tags from Plasmid A; kappa CL from Plasmid C); also called APFF / S92M
B2: Fab VH1-46_IGHD6-6*01_IGHJ1*01 S102A/S103P/S104F/H111F (H:APFF) & L6_IGKJ1*01 S76E (Fab, V domains shown)
VH: QVQLVQSGAEVKKPGASVKVSCKASGYTFTSYYMHWVRQAPGQGLEWMGIINPSGGSTSYAQKFQGRVTMTRDTSTSTVYMELSSLRSEDTAVYYCAREEYAPFSAEYFQFWGQGTLVTVSS
VL: EIVLTQSPATLSLSPGERATLSCRASQSVSSYLAWYQQKPGQAPRLLIYDASNRATGIPARFSGSGSGTDFTLTIESLEPEDFAVYYCQQRSNWPPWTFGQGTKVEIKR
notes: Tested as Fab expressed in E. coli; VH was cloned into Plasmid A (CH1 constant region, His6 and Flag tags) and the kappa VL into Plasmid C (kappa CL)
B3: Fab VH1-46_IGHD6-6*01_IGHJ1*01 S102A/S103P/S104F/H111F (H:APFF) & L6_IGKJ1*01 S76Q (Fab, V domains shown)
VH: QVQLVQSGAEVKKPGASVKVSCKASGYTFTSYYMHWVRQAPGQGLEWMGIINPSGGSTSYAQKFQGRVTMTRDTSTSTVYMELSSLRSEDTAVYYCAREEYAPFSAEYFQFWGQGTLVTVSS
VL: EIVLTQSPATLSLSPGERATLSCRASQSVSSYLAWYQQKPGQAPRLLIYDASNRATGIPARFSGSGSGTDFTLTIQSLEPEDFAVYYCQQRSNWPPWTFGQGTKVEIKR
notes: as for B2
B4: Fab VH1-46_IGHD6-6*01_IGHJ1*01 S102A/S103P/S104F/H111F (H:APFF) & L6_IGKJ1*01 S76P (Fab, V domains shown)
VH: QVQLVQSGAEVKKPGASVKVSCKASGYTFTSYYMHWVRQAPGQGLEWMGIINPSGGSTSYAQKFQGRVTMTRDTSTSTVYMELSSLRSEDTAVYYCAREEYAPFSAEYFQFWGQGTLVTVSS
VL: EIVLTQSPATLSLSPGERATLSCRASQSVSSYLAWYQQKPGQAPRLLIYDASNRATGIPARFSGSGSGTDFTLTIPSLEPEDFAVYYCQQRSNWPPWTFGQGTKVEIKR
notes: as for B2
B5: Fab VH1-46_IGHD6-6*01_IGHJ1*01 S102A/S103P/S104F/H111F (H:APFF) & L6_IGKJ1*01 S76N (Fab, V domains shown)
VH: QVQLVQSGAEVKKPGASVKVSCKASGYTFTSYYMHWVRQAPGQGLEWMGIINPSGGSTSYAQKFQGRVTMTRDTSTSTVYMELSSLRSEDTAVYYCAREEYAPFSAEYFQFWGQGTLVTVSS
VL: EIVLTQSPATLSLSPGERATLSCRASQSVSSYLAWYQQKPGQAPRLLIYDASNRATGIPARFSGSGSGTDFTLTINSLEPEDFAVYYCQQRSNWPPWTFGQGTKVEIKR
notes: as for B2
B6: Fab VH1-46_IGHD6-6*01_IGHJ1*01 S102A/S103P/S104F/H111F (APFF) & L6_IGKJ1*01 S92N (Fab, V domains shown)
VH: QVQLVQSGAEVKKPGASVKVSCKASGYTFTSYYMHWVRQAPGQGLEWMGIINPSGGSTSYAQKFQGRVTMTRDTSTSTVYMELSSLRSEDTAVYYCAREEYAPFSAEYFQFWGQGTLVTVSS
VL: EIVLTQSPATLSLSPGERATLSCRASQSVSSYLAWYQQKPGQAPRLLIYDASNRATGIPARFSGSGSGTDFTLTISSLEPEDFAVYYCQQRNNWPPWTFGQGTKVEIKR
notes: Tested as Fab (CH1 with His6/Flag tags from Plasmid A; kappa CL from Plasmid C); also called APFF / S92N

Assays:
[1] = target: T2, rHuman HGF R/c-MET/Fc Chimera (human, UniProt P08581 25-932); test: ECL multispot (MSD) binding assay; antigen spotted on plate, Fab in solution;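 note: purified Fab bound for 1 h at 20 °C, detected with a TAG-labelled antibody, electrochemiluminescence compared with each well's blank, signal-to-blank ratio of at least 4 scored as hit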
T2 construct: also called HGF R/Fc

[2] = target: T3, rHuman Notch-1/Fc Chimera (human, UniProt P46531 19-526); test: as above
T3 construct: Bought from R&D Systems (Cat#3647-TK)

rHuman CD44/Fc Chimera = rHuman CD44/Fc Chimera (human, UniProt P16070 21-220); test: as above
[3] = target: rHuman IGF-1 sR (insulin-like growth factor-1 soluble receptor) (human, UniProt P08069 31-932); test: as above
[4] = target: T4, rHuman P-Cadherin/Fc Chimera (human, UniProt P22223 108-654); test: as above
T4 construct: Bought from R&D Systems (Cat#861-PC)

[5] = target: T1, rHuman Erythropoietin R/Fc Chimera; test: as above
rHuman ErbB2/Fc Chimera = rHuman ErbB2/Fc Chimera (human, UniProt P04626 23-652); test: as above
rHuman EGF R/Fc Chimera = rHuman EGF R/Fc Chimera (human, UniProt P00533 25-645); test: as above
[6] = target: T5, Recombinant Human DLL4 (delta-like protein 4) (human, UniProt Q9NR61 27-524); test: ELISA, DLL4 coated on plate, Fab in solution, absorbance at 450 nm
T5 construct: Bought recombinant protein (R&D Systems Cat#1506-D4/CF); also called rHuman DLL4; Delta-like 4

[7] = target: T5, Recombinant Human DLL4 (delta-like …); test: ECL (MSD) multispot binding assay, DLL4 immobilized, Fab in solution

T2 sequence (P08581 25-932, change not shown): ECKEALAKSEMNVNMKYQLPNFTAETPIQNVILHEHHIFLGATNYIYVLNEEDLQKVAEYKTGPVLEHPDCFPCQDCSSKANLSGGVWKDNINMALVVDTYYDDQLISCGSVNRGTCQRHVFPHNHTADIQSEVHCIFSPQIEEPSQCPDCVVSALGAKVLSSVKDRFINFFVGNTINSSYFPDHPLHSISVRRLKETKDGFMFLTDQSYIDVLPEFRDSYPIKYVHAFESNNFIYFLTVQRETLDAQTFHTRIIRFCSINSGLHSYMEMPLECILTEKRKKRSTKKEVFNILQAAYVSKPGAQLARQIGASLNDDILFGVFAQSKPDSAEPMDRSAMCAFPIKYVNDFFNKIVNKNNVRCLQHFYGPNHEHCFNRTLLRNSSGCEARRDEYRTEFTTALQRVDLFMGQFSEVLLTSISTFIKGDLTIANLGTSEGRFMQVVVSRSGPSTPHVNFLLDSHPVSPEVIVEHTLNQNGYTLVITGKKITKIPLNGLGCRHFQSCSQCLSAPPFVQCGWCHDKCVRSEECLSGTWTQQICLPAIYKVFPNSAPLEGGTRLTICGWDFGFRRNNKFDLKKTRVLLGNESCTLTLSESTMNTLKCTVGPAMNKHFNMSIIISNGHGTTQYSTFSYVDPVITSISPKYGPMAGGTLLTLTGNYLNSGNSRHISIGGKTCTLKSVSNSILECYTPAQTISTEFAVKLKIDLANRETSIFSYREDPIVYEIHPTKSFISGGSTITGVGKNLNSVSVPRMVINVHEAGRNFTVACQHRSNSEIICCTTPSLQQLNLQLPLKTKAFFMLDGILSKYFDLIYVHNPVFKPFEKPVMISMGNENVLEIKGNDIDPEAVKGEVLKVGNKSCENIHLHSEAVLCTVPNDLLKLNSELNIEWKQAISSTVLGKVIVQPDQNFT

Binder | ECL signal [1] | ECL signal [2] | ECL signal (rHuman CD44/Fc Chimera) | ECL signal [3] | ECL signal [4] | ECL signal [5] | ECL signal (rHuman ErbB2/Fc Chimera) | ECL signal (rHuman EGF R/Fc Chimera) | ELISA (Signal-Noise) [6] | ECL Signal/Noise [7]
B1 | 346 | 385 | 304 | 271 | 328 | 340 | 301 | 367 |  | 
B2 |  |  |  |  |  |  |  |  | 0.36 | 218
B3 |  |  |  |  |  |  |  |  | 0.32 | 187
B4 |  |  |  |  |  |  |  |  | 0.29 | 100
B5 |  |  |  |  |  |  |  |  | 0.28 | 118
B6 | 243 | 407 | 336 | 312 | 271 | 314 | 242 | 293 |  | 
